Our source for the Bioactivity reduction (Cytotoxicity, A375 cells), ratio of LC50 to MA-wt, Bioactivity reduction (IL6 release, HeLa cells), ratio of EC50 to MA-wt and IC50 values is patent publication US20130115189A1.

The first experiment deals with IL-1 receptor. In words: cell-based or functional assay.
As to “MDI-wt-His6 (from UniProt P01584 118-269) (ligand)”, the Bioactivity reduction (Cytotoxicity, A375 cells), ratio of LC50 to MA-wt came to 700 fold and the Bioactivity reduction (IL6 release, HeLa cells), ratio of EC50 to MA-wt turned out to be 43 fold.
On the same counts, the results for “MDI-D145K-CG (from UniProt P01584 118-269) (ligand)” are 600000 fold and 60000 fold.
Turning to “MDI-D145K-His6 (from UniProt P01584 118-269) (ligand)”, the Bioactivity reduction (Cytotoxicity, A375 cells), ratio of LC50 to MA-wt was 600000 fold and the Bioactivity reduction (IL6 release, HeLa cells), ratio of EC50 to MA-wt came to 60000 fold.

The next experiment concerns the target IL-1 receptor. In words: homogeneous time-resolved fluorescence (HTRF) receptor binding assay. (In general: In TR-FRET formats the signal depends on donor and acceptor labels being close together.)
By IC50 is commonly meant the point on the concentration scale where inhibition reaches its midpoint. “MDI-wt-His6 (from UniProt P01584 118-269) (ligand)” had an IC50 of 1340 nM.
For “MA-wt-CG (from UniProt P01584 117-269) (ligand)”, the IC50 came to 31 nM.
Regarding “MDI-D145K-CG (from UniProt P01584 118-269) (ligand)”, the IC50 is 6770 nM.
For “MA-D145K-His6 (from UniProt P01584 117-269) (ligand)”, the IC50 came to 28 nM.
For “MA-wt (interleukin-1β wild type sequence containing an N-terminal methionine) (from UniProt P01584 117-269) (ligand)”, the IC50 was 20 nM.
Same read-out and setting: the same measure for “MDI-D145K-His6 (from UniProt P01584 118-269) (ligand)”: 4810 nM.
For “MA-wt-His6 (from UniProt P01584 117-269) (ligand)”, the IC50 is 23 nM.
